Measurements taken from the supplement of paper PMC9170038.

Tested on: MS2 coat protein
Test: apparent KD of MS2 coat protein; designed switch direction (-1 OFF switch, 1 ON switch): -1; higher = weaker reporter binding
Procedure, shortened: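 The buffer was Tris-HCl pH 7.5 with KCl, MgCl2, BSA, DTT, tRNA and Tween-20. In it, SNAP-549-labelled MS2 coat protein was titrated in doubling steps from 0.7 or 1.5 nM to 3 µM over chip-bound RNA switches transcribed by stalled E. coli RNA polymerase on Illumina chips. Apparent KD is the per-design median over clusters of curve fits to normalised fluorescence.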

[1] = input ligand: microRNA oligo, concentration not stated
[2] = Eterna round: R95, input ligand: FMN 200 uM
[3] = Eterna round: R95, input ligand: microRNA oligo, concentration not stated
[4] = Eterna round: R95, input ligand: none

Sequence	apparent KD of MS2 coat protein (input ligand: FMN 200 uM)	apparent KD of MS2 coat protein (input ligand: none)	apparent KD of MS2 coat protein [1]	further results
UAGAUACAUGAGGAUCACCCAUGUGAGGAUAUGAGAAUUAUAUUAAAUGAAUUAAUUUUCAGAAGGCACAAAGG [JR_Ex1_Sub052] (Eterna round: R97, puzzle: Exclusion 1)	177 nM	166 nM		
UAGCAAUGAGAUGGGUUCCACAUGAGGAUCACCCAUGUCCAAGCUCAGAGCUCGUCUUAUUUGAGAUACUUCACUGU [Eternabot (L2) Solution 50] (Eterna round: R97, puzzle: Sensor, turn-off variant 1)	41.1 nM	43.4 nM		
UAGCAUUGCCAAAGGUAGUGCAAAACAUGAGGAUCACCCAUGUAGGAUAUGGUAGGCAAAGCUUACCAGAAGGACAUGAUAAAU [Mat - Exclusion NG 3 - Mod of JL - D18] (Eterna round: R96, puzzle: Exclusion NG 3)	327 nM	54.5 nM	39.7 nM	
UAGGACAAAGGAUAUACGUGUUAUGAUCGGGAUAACAAAAGACAUGAGGAUCACCCAUGUAGAAGGUUGCUUGA [EX2 B.25] (Eterna round: R97, puzzle: Exclusion 2)	26.2 nM	17.8 nM		
UAGGCUUUAGGAUAUGCGUGUUGUAGUCGGCGAUGUGGUUCACAUGAGGAUCACCCAUGUAGAAGGAAAGUUUA [-17.2, -17 kcal, 26% A] (Eterna round: R97, puzzle: Exclusion 2)	244 nM	104 nM		
UAUAAGCUAGGAUAUCGCUGAGUAAACAUGAGGAUCACCCAUGUGGACCAUGAUUGCCACCGAGAAGGAGCGGGAA [Aonat] (puzzle: Exclusion 5)				apparent KD of MS2 coat protein [2]: 119 nM; apparent KD of MS2 coat protein [3]: 53.7 nM; apparent KD of MS2 coat protein [4]: 56.8 nM
UAUAAUCGAGGAUAUACAUGAGGAUCACCCAUGUGUUGCCGCGUGAUGUGUUUGUCAGGUAGAAGGCGAUUAUA [Exclusion 3 - Mod of Jieux's Gilly Gone Silly 23 v.9] (puzzle: Exclusion 3)				apparent KD of MS2 coat protein [3]: 153 nM
UAUAGUUCAGGAUAUGAUGAAUUAAACAUGAGGAUCACCCAUGUAGAUCCUGAAUUAACAUCAGAAGGGAAUAUUU [JL-ex5-4.49 Brourd mod] (Eterna round: R97, puzzle: Exclusion 5)	17.4 nM	14.3 nM		
UAUAUAUAGUAAGGAUAUAUAUUUAUUUUAUAAAUAGAAGGUACAGACAUGAGGAUCACCCAUGUUAUAAUAUGGACAUGUGGA [JMF's Solution 1] (Eterna round: R96, puzzle: Exclusion NG 1)			45.3 nM	
UAUAUAUAGUAAGGAUAUAUAUUUUUUUUAUAAAUAGAAGGUACAGACAUGAGGAUCACCCAUGUUAUAAUAUGGACAUGUGGA [JMF's Solution 2] (Eterna round: R96, puzzle: Exclusion NG 1)			77.4 nM	
UAUAUAUAGUAAGGAUAUGUAAUUGUUUUAUAAACAGAAGGUACUGACAUGAGGAUCACCCAUGUUUUAGUGUGGGCAUGUAGA [JMF's solution 33] (Eterna round: R96, puzzle: Exclusion NG 1)			45.7 nM	
UAUAUAUAGUAAGGAUAUGUAUAUAUAUUAUAAACAGAAGGUACUGACAUGAGGAUCACCCAUGUUUUAGUGUGGGCAUGUAGA [JMF's solution 58] (Eterna round: R96, puzzle: Exclusion NG 1)			53.8 nM	
UAUAUAUAGUAAGGAUAUGUAUAUAUUUUAGAAACAGAAGGUACUGACAUGAGGAUCACCCAUGUUUUAGUGUGGGCAUGUAGA [JMF's solution 67] (Eterna round: R96, puzzle: Exclusion NG 1)			52.7 nM	
UAUAUAUAGUAAGGAUAUGUAUAUAUUUUAUAGACAGAAGGUACUGACAUGAGGAUCACCCAUGUUUUAGUGUGGGCAUGUAGA [JMF's solution 72] (Eterna round: R96, puzzle: Exclusion NG 1)	105 nM	50.5 nM	50.4 nM	
UAUAUAUAGUAAGGAUAUGUAUUAAUUAUAUAAACAGAAGGUACUGACAUGAGGAUCACCCAUGUUUUAGUGUGGGCAUGUAGA [JMF's solution 80] (Eterna round: R96, puzzle: Exclusion NG 1)			65.8 nM	
UAUAUAUAGUAAGGAUAUGUAUUAGUUUUAUAAACAGAAGGUACUGACAUGAGGAUCACCCAUGUUUUAGUGUGGGCAUGUAGA [JMF's solution 74] (Eterna round: R96, puzzle: Exclusion NG 1)			76.6 nM	
UAUAUAUAGUAAGGAUAUGUAUUUAUUUUAGAAACAGAAGGUACUGACAUGAGGAUCACCCAUGUUUUAGUGUGGGCAUGUAGA [JMF's solution 23] (Eterna round: R96, puzzle: Exclusion NG 1)			62 nM	

Sequence	apparent KD of MS2 coat protein (input ligand: FMN 200 uM)	apparent KD of MS2 coat protein (input ligand: none)	apparent KD of MS2 coat protein [1]	further results
UAUAUAUAGUAAGGAUAUGUAUUUAUUUUAUAAACAGAAGGUACUGACAUGAGGAUCACCCAUGUUUUAGUGUGGGCAUGUAGA [JMF's solution 4] (Eterna round: R96, puzzle: Exclusion NG 1)			67 nM	
UAUCAUCAUGUAGGAUAUGCGUGGCGAAGCUAUGCAGAAGGACAUGAGGAUCACCCAUGUUCUUGCGUCUGCGUACAGAUGCAA [Mat - Exclusion NG 1 - Mod of JL - D71] (Eterna round: R96, puzzle: Exclusion NG 1)	218 nM	66.7 nM	38 nM	
UAUCCACAUGAGGAUCACCCAUGUCAGGAUAUGCACUAUGGGCCAAGUGGUCCAAGGAGCAGAAGGGACGAGAG [Eternabot (L2) Solution 25] (Eterna round: R97, puzzle: Exclusion 1)	28.9 nM	15.2 nM		
UAUCGGGACUGAGGAUAUUCGUUCGAGCACGAAGAAGAAGGUAGUGUCAGGGACAUGAGGAUCACCCAUGUGAUUUCAGUCCCA [JL ViennaUCT Erinle mod 6] (Eterna round: R96, puzzle: Exclusion NG 1)	91.4 nM	133 nM	102 nM	
UAUGGUUAAGUCAGGAUAUACAUACAGAAAUCUGAGUAGAAGGGACAUGAGGAUCACCCAUGUAUGGUAGUGUU [Ex4 #55] (Eterna round: R97, puzzle: Brourd's mod of Exclusion 4)	141 nM	96.2 nM		
UAUGUGUCAGGAUAUUAGUAGUAAAUAAAUAAAAUUAUUACUGAGAAGGGACAUGAGGAUCACCCAUGUACCUU [JR_Ex4_Sub051] (Eterna round: R97, puzzle: Exclusion 4)	22.6 nM	16.2 nM		
UAUGUGUCAGGAUAUUAGUAGUAAAUGAAUAAAAUUAUUACUGAGAAGGGACAUGAGGAUCACCCAUGUGCCUC [Mat - Exclusion 4 - Eli Mod - D27] (Eterna round: R97, puzzle: Exclusion 4)	345 nM	35.2 nM		
UAUGUUAGCACAGGAUAUUGUUAUUUUUUUUUUCAAGAAGGGUGUACAUGAGGAUCACCCAUGUUAUGGUUUUAUCUUUUACAA [JR_ExcNG1_Sub012] (Eterna round: R96, puzzle: Exclusion NG 1)	877 nM	809 nM	247 nM	
UAUUAAACAAGCAGGUCCCACAUGAGGAUCACCCAUGUGCUCGUCUUAUAAGGUACUGUGACGAAAGUCACGGUACC [Elimod 16 - Jieux - Sensor, turn-off variant 1] (Eterna round: R97, puzzle: Sensor, turn-off variant 1)	37.2 nM	40.1 nM		
UAUUAAACAUAGGAUAUCGAAAAUAUCAUUUAACGAGAAGGAUGAACAUGAGGAUCACCCAUGUGGUAUCAUGG [Mat - Exclusion 6 - JL Mod - D15] (puzzle: Exclusion 6)				apparent KD of MS2 coat protein [2]: 426 nM; apparent KD of MS2 coat protein [3]: 289 nM; apparent KD of MS2 coat protein [4]: 148 nM
UAUUAACAAGCAAGAUCCUACAUGAGGAUCACCCAUGUGCUCGUCUUAUAAGGUACUGUGACGAAAGUCACGGUACC [Sensor 3, v1 - 70] (puzzle: Sensor v3, turn-off variant 1)				apparent KD of MS2 coat protein [2]: 294 nM; apparent KD of MS2 coat protein [3]: 42.9 nM; apparent KD of MS2 coat protein [4]: 251 nM
UAUUAACAAGUAAGAUCCAACAUGAGGAUCACCCAUGUGCUCGUCUUAUAAGGUACUGUGACGAAAGUCACGGUACC [Eli 87 v1] (Eterna round: R97, puzzle: Sensor, turn-off variant 1)	21.2 nM	21.8 nM		
UAUUACCCAAGCAGGUCCCACAUGAGGAUCACCCAUGUGCUCGUCUUAUAACGAUCUGUGGGAAAACCUACGGAUCG [Elimod 20 - Jieux - Sensor, turn-off variant 1] (Eterna round: R97, puzzle: Sensor, turn-off variant 1)	27.7 nM	34.4 nM		
UAUUAGCAAGCAACUGGGUACAUGAGGAUCACCCAUGUGCUCGUCUUAUAAGGUACUGUGACGAAAGUCACUGUACC [mod--Eli14] (Eterna round: R97, puzzle: Sensor, turn-off variant 1)	17.8 nM	16.3 nM		
UAUUAGCAAGCAAGAUCCUACAUGAGGAUCACCCAUGUGCUCGUCUUAAGCCCAGAAUUACUGGGCGCUCGUCUUAU [Winner reversed engineered 21] (Eterna round: R97, puzzle: Sensor, turn-off variant 1)	521 nM	684 nM		
UAUUAGCAAGCAGGAUCCCACAUGAGGAUCACCCAUGUGCUCGUCUUAUAAGGUACUGUGACGAAAGUCACGGUACC [Sensor 3, v1 - 90] (puzzle: Sensor v3, turn-off variant 1)				apparent KD of MS2 coat protein [2]: 81.3 nM; apparent KD of MS2 coat protein [3]: 186 nM; apparent KD of MS2 coat protein [4]: 90.9 nM
